Experimental data taken from IntAct's records for PubMed 21320496.

B1: Abl interactor 1 (Homo sapiens), Q8IZP0-4 (parent)
chain: MAELQMLLEEEIPSGKRALIESYQNLTRVADYCENNYIQATDKRKALEETKAYTTQSLASVAYQINALANNVLQLLDIQASQLRRMESSINHISQTVDIHKEKVARREIGILTTNKNTSRTHKIIAPANMERPVRYIRKPIDYTVLDDVGHGVKWLKAKHGNNQPARTGTLSRTNPPTQKPPSPPMSGRGTLGRNTPYKTLEPVKPPTVPNDYMTSPARLGSQHSPGRTASLNQRPRTHSGSSGGSGSRENSGSSSIGIPIAVPTPSPPTIGPAPGSAPGSQYGTMTRQISRHNSTTSSTSSGGYRRTPSVTAQFSAQPHVNGGPLYSQNSIADSPTPPPPPPPDDIPMFDDSPPPPPPPPVDYEDEEAAVVQYNDPYADGDPAWAPKNYIEKVVAIYDYTKDKDDELSFMEGAIIYVIKKNDDGWYEGVCNRVTGLFPGNYVESIMHYTD

Variants of: B1
Conditions: with Abl1, P00520-4
Sequence of Abl1, P00520-4 (P00520 other isoform, or with tags, fused parts or gaps): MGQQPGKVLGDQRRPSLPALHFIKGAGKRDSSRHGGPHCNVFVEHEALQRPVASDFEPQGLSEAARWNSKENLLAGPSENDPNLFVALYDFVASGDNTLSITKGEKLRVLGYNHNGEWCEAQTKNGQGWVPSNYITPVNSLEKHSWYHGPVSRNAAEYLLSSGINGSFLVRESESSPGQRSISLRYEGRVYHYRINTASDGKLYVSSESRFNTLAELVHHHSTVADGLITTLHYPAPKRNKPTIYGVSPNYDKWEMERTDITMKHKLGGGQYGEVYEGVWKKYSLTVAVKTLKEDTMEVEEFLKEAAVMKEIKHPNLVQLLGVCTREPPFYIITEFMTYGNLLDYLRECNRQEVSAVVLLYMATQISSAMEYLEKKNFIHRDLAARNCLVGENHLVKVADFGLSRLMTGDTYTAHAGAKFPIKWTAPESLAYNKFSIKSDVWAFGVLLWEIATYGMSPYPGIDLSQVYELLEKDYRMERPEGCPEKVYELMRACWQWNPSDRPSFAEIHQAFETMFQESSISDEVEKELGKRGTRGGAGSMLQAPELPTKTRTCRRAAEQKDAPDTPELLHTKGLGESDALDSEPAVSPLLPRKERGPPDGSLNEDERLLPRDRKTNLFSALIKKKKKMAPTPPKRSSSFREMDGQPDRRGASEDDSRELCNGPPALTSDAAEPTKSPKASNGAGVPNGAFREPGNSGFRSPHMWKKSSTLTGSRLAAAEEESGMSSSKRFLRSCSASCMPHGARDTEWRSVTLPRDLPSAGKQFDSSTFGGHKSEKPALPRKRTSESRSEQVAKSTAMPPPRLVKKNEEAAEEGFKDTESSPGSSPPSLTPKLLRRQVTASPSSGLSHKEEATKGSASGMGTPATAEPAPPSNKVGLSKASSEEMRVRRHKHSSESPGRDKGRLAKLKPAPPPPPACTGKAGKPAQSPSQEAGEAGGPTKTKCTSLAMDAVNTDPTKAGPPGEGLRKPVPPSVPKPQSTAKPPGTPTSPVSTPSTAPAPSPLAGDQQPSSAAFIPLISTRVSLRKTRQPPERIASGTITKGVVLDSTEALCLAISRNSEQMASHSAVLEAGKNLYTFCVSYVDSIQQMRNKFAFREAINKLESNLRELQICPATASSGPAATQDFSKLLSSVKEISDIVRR
In the case of Y213F, the “effect of a mutation on the interaction” value is reported as “decreasing interaction”.
Y398F was tested, and the “effect of a mutation on the interaction” value was “decreasing interaction”.
